The results in this text go back to publication PMC9582512 (2022).

Test [1] deals with IgG4 F127 pre-complexed with dimeric Fel d 1 (human | cat, UniProt P30438 23-92; P30440 18-109). The test can be described thus: BLI; pre-complexed with Fel d 1. A general note: Biolayer interferometry detects binding as a change in optical thickness at a sensor tip.
Test [2] has as its target IgG1 F127 pre-complexed with dimeric Fel d 1 (human | cat, UniProt P30438 23-92; P30440 18-109). The test can be described thus: BLI; pre-complexed with Fel d 1.

B1: human recombinant biotinylated FcγRIIb (CD32b) (receptor)
chain: TPAAPPKAVLKLEPQWINVLQEDSVTLTCRGTHSPESDSIQWFHNGNLIPTHTQPSYRFKANNNDSGEYTCQTGQTSLSDPVHLTVLSEWLVLQTPHLEFQEGETIVLRCHSWKDKPLVKVTFFQNGKSKKFSRSDPNFSIPQANHSHSGDYHCTGNIGYTLYSSKPVTITVQAP
modifications: biotin (biotinylated; site not stated)
As a reminder, the koff is a measure of how fast the partners let go of each other. Lower therefore signals a long-lived complex. On to B1, for which the koff in test [1] amounted to 0.000126 s⁻¹; in test [2] it was 0.000279 s⁻¹.
